This is an account of results in paper PMC12700547, “Auranofin attenuates TOPBP1-mediated ATR replication stress response and improves chemotherapeutic response in breast tumor models” (The Journal of Clinical Investigation, 2025).

For experiment [1], the target named is auranofin. In words: BLI. Particulars: auranofin 25, 50, 100, 200 µM; n = 2; parent: 2.358E-5 M.
In experiment [2] the target is T1, His-tagged recombinant TOPBP1 BRCT 7–8 (UniProt Q92547 1264-1493).
T1 construct: The cited crystal structures 7CMZ and 3AL3 hold BRCT 7–8; also called BRCT 7–8/WT; His-tagged BRCT 7–8; source: E coli cells, purified
T1 sequence (Q92547 1264-1493): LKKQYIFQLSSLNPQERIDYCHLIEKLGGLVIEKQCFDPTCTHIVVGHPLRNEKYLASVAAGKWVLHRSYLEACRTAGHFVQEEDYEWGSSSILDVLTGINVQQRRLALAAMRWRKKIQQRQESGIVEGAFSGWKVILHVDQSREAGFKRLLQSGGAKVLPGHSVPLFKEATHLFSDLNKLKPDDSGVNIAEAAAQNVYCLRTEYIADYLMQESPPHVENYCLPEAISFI
In words: BLI; Octet RED96; biotin-peptides immobilized on biosensors; His-tagged BRCT 7–8 (1 μM) alone or preincubated with a serial dilution of compound (auranofin) as analyte; PBS with 0.1% BSA, 0.02% Tween-20, 1% DMSO; 2 minutes of dissociation; 1:1 binding model with local fit. The following applies: both partners purified.

Where no end group is shown, it is not given here. [ ]: non-standard residue; d: D form. pT = C[C@@H](OP(=O)(O)O)[C@H](N)C(=O)O

In general, Kd refers to the concentration at which binding is half-saturated. Regarding “His-tagged recombinant TOPBP1 BRCT 7–8 (from UniProt Q92547) F1411A”, the Kd in experiment [1] amounted to 4.22 mM.

B1: biotin-F1071 peptide (F1071-containing peptide of the TOPBP1 AAD) (peptide)
peptide: TLEMRENFQKQLQEI
modifications: not fully specified (N-terminus); printed as TLEMRENF_1071_QKQLQEI; also: biotin, position not given here
As for B1, the binding result in experiment [2] is given as “binds”.

B2: biotin-pFANCJ peptide (phosphorylated Thr1133 containing peptide of FANCJ) (peptide)
peptide: EAEDESIYF[pT]PELYDPEDT
modifications: not fully specified (N-terminus); printed as EAEDESIYF(pT)PELYDPEDT; also: biotin (site not given here)
notes: also called phosphorylated FANCJ peptide
Turning to B2, the binding result in experiment [2] is “binds”.

B3: biotin-Y989 peptide (Y989-containing peptide of the TOPBP1 AAD) (peptide)
peptide: ECKHLPESLYPHTYN
modifications: not fully specified (N-terminus); printed as ECKHLPESLY_989_PHTYN; also: biotin, position not given here
Take B3: in experiment [2], the binding result was “binds”.

B4: biotin-APS peptide (acidic patch sequence of PHF8) (peptide)
peptide: GACFKDAEYIYPSLESDDDDPA
modifications: not fully specified (N-terminus); also: biotin, position not given here
notes: also called PHF8/APS peptide
Turning to B4, the binding result in experiment [2] is reported as “binds”.
